From paper PMC12059018 (Nature Communications, 2025)

Biological target: T1, p53-ZF43 bait (UniProt P04637)
T1 construct: also called p53 bait; source: BHK-21, transfected, in cells
Assay: two-hybrid
Details: partners not purified

T1 sequence (P04637 whole entry): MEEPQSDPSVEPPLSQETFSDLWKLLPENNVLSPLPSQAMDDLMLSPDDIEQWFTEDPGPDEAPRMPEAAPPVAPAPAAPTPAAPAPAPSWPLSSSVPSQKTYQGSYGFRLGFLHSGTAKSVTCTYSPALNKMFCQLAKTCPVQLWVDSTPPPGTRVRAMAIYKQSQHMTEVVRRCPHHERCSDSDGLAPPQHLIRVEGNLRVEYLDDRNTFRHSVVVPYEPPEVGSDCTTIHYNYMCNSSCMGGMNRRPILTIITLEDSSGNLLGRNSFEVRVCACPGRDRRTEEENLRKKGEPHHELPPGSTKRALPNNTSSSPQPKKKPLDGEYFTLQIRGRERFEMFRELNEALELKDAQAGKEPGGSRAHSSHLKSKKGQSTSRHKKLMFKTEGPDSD

B1: Nb139-VP64 (parental, NLS-containing fusion) (VHH)
VHH: QVQLQESGGGLVQAGGSLRLSCAASERTFSTYAMGWFRQAPGREREFLAQINWSGTTTYYAESVKDRTTISRDNAKNTVYLEMNNLNADDTGIYFCAAHPQRGWGSTLGWTYWGQGTQVTVSS
notes: also called Nb139[WT]; source: BHK-21, transfected, in cells
B1: binds.
